Experiments:
Test in all cases: Biacore; eBiosc hIL23
[1] = target: 123F1
[2] = target: 119C3
[3] = target: 119C9
[4] = target: 121C7
[5] = target: 124G2
[6] = target: 124D2
[7] = target: 81D1
[8] = target: 12D2
[9] = target: 124H2
[10] = target: 124H5
[11] = target: 119H1
[12] = target: 12A11
[13] = target: 119B3
[14] = target: 3A7
[15] = target: 3D4
[16] = target: 3H5
[17] = target: 3G9
[18] = target: 3A11
[19] = target: 3A10
[20] = target: 3E1
[21] = target: 4F3
[22] = target: 3C7
[23] = target: 1G8

B1: eBiosc hIL23 (ligand)
chain 1: RAVPGGSSPAWTQCQQLSQKLCTLAWSAHPLVGHMDLREEGDEETTNDVPHIQCGDGCDPQGLRDNSQFCLQRIHQGLIFYEKLLGSDIFTGEPSLLPDSPVGQLHASLLGLSQLLQPEGHHWETQQIPSLSPSQPWQRLLLRFKILRSLQAFVAVAARVFAHGAATLSP
chain 2: IWELKKDVYVVELDWYPDAPGEMVVLTCDTPEEDGITWTLDQSSEVLGSGKTLTIQVKEFGDAGQYTCHKGGEVLSHSLLLLHKKEDGIWSTDILKDQKEPKNKTFLRCEAKNYSGRFTCWWLTTISTDLTFSVKSSRGSSDPQGVTCGAATLSAERVRGDNKEYEYSVECQEDSACPAAEESLPIEVMVDAVHKLKYENYTSSFFIRDIIKPDPPKNLQLKPLKNSRQVEVSWEYPDTWSTPHSYFSLTFCVQVQGKSKREKKDRVFTDKTSATVICRKNASISVRAQDRYYSSSWSEWASVPCS
koff [1]: 0.000377 s⁻¹
koff [2]: 0.0334 s⁻¹
koff [3]: 0.0012 s⁻¹
koff [4]: 0.000112 s⁻¹
koff [5]: 9.28e-05 s⁻¹
koff [6]: 0.000103 s⁻¹
koff [7]: 0.0114 s⁻¹
koff [8]: 0.000125 s⁻¹
koff [9]: 5.88e-05 s⁻¹
koff [10]: 3.54e-05 s⁻¹
koff [11]: 0.0106 s⁻¹
koff [12]: 0.000134 s⁻¹
koff [13]: 0.00015 s⁻¹
koff [14]: 0.00507 s⁻¹
koff [15]: 0.0062 s⁻¹
koff [16]: 0.00333 s⁻¹
koff [17]: 0.00672 s⁻¹
koff [18]: 0.00513 s⁻¹
koff [19]: 0.00286 s⁻¹
koff [20]: 0.00866 s⁻¹
koff [21]: 0.00208 s⁻¹
koff [22]: 0.0102 s⁻¹
koff [23]: 0.00223 s⁻¹
